# B1: Twister Ribozyme (parent)
# chain: AACACUGCCAAUGCCGGUCCCAAGCCCGGAUAAAAGUGGAGGGGGCGG
# Variants of: B1
# Assay: self-cleavage, relative activity (ratio to wild type); higher = more cleavage; co-transcriptional
row,Variant,self-cleavage
1,AACCCUUCCAAUGCCGGUCCCAAGCCCGGAUAAAAGUGGAGGGGGCGG [A4C G7U],0.0643
2,AACCCUGCCAAUGCCGGUCCCAAGCCCCGAUAAAAGUGGAGGGGGCGG [A4C G28C],0.0895
3,AACCCUGCCAAUGCCGGUCCCAAGCCCUGAUAAAAGUGGAGGGGGCGG [A4C G28U],0.104
4,AACCCUGCCCAUGCCGGUCCCAAGCCCGGAUAAAAGUGGAGGGGGCGG [A4C A10C],0.152
5,AACCCUGCCGAUGCCGGUCCCAAGCCCGGAUAAAAGUGGAGGGGGCGG [A4C A10G],0.334
6,AAUACUGCCAAUGCCGGUCCCAAGCCCGGAUAAAGGUGGAGGGGGCGG [C3U A35G],0.136
7,AAUACUGCCAAUGCCGGUCCCAAGCCCGUAUAAAAGUGGAGGGGGCGG [C3U G29U],0.464
8,AAUACUGCCAAUGCCGGUCCCAAGCCCGCAUAAAAGUGGAGGGGGCGG [C3U G29C],0.277
9,AAUACUGCCAAUGCCGGUCCCAAACCCGGAUAAAAGUGGAGGGGGCGG [C3U G24A],0.0721
10,AACCCUGCCAAUGCCGGUCCCGAGCCCGGAUAAAAGUGGAGGGGGCGG [A4C A22G],0.0686
11,AAUACUGCCAAUGCCGGUCACAAGCCCGGAUAAAAGUGGAGGGGGCGG [C3U C20A],0.07
12,AAUACUGCCAAUGCCGGUCGCAAGCCCGGAUAAAAGUGGAGGGGGCGG [C3U C20G],0.0703
13,AAUACUGCCAAUGCGGGUCCCAAGCCCGGAUAAAAGUGGAGGGGGCGG [C3U C15G],0.125
14,AAUACUGCCAAUGCUGGUCCCAAGCCCGGAUAAAAGUGGAGGGGGCGG [C3U C15U],0.335
15,AAUACUGCCAAUACCGGUCCCAAGCCCGGAUAAAAGUGGAGGGGGCGG [C3U G13A],0.402
16,AACCCUGCCACUGCCGGUCCCAAGCCCGGAUAAAAGUGGAGGGGGCGG [A4C A11C],0.0104
17,AACCCUGCCAUUGCCGGUCCCAAGCCCGGAUAAAAGUGGAGGGGGCGG [A4C A11U],0.16
18,AAUACUGCCAAUGCCGGUCCCAAGCCCGGAUACAAGUGGAGGGGGCGG [C3U A33C],0.476
19,AAUACUGCCAAUGCCGGUCCCAAGCCCGGAUAUAAGUGGAGGGGGCGG [C3U A33U],0.471
20,AAUACUGCCAAUGCCGGUCCCAAGCCCGGAUAAAAGUGGCGGGGGCGG [C3U A40C],0.0947
21,AAUACUGCCAAUGCCGGUCCCAAGCCCGGAUCAAAGUGGAGGGGGCGG [C3U A32C],0.532
22,AAUACUGCCAAUGCCGGUCCCAAGCCCGGAUUAAAGUGGAGGGGGCGG [C3U A32U],0.402
23,AAUACUGCCAAUGCCGGUCCCAAGCCCGGAUGAAAGUGGAGGGGGCGG [C3U A32G],0.369
24,AAUACUGCCAAUGCCGGUCCCAAGCCCGGAUAAAAGUGGAGGGGGGGG [C3U C46G],0.526
25,AAUACUGCCAAUGCCGGUCCCAAGCCCGGAUAAAAGUGGAGGGGGUGG [C3U C46U],0.503
26,AAUACUGCCAAUGCCGGUCCCAAGCCCGGAUAAAAGUGGAGGGGGCCG [C3U G47C],0.233
27,AACCCUGCCAAUGCCGGUCCCAAGCCAGGAUAAAAGUGGAGGGGGCGG [A4C C27A],0.0944

row,Variant,self-cleavage
1,AACCCUGCCAAUGCCGGUCCCAAGCCUGGAUAAAAGUGGAGGGGGCGG [A4C C27U],0.112
2,AACCCUGCCAAUGCCGGUCCCAAGCCCGGAUCAAAGUGGAGGGGGCGG [A4C A32C],0.101
3,AAUACUGCCAAUGCCGGUCCCAAGCCCGGAUAAGAGUGGAGGGGGCGG [C3U A34G],0.153
4,AAUACUGCCAAUGCCGGUCCCAAGCCCGGAUAAUAGUGGAGGGGGCGG [C3U A34U],0.314
5,AAUACUGCCAAUGGCGGUCCCAAGCCCGGAUAAAAGUGGAGGGGGCGG [C3U C14G],0.0572
6,AAUACUGCCAAUGACGGUCCCAAGCCCGGAUAAAAGUGGAGGGGGCGG [C3U C14A],0.351
7,AAUACUGCCAAUGUCGGUCCCAAGCCCGGAUAAAAGUGGAGGGGGCGG [C3U C14U],0.376
8,AAUACUGCCAAUGCCGGUCCCAAGCCCGGAUAAAAGUGGAGGGAGCGG [C3U G44A],0.382
9,AAUACUGCCAAUGCCGGUCCCAAGCCCGGAUAAAAGUGGAGGGUGCGG [C3U G44U],0.436
10,AAUACUGCCAAUGCCGGUCCCAAGCCCGGAUAAAAGUGGAGGGGGCGU [C3U G48U],0.562
11,AACCCUGCCAAUGCCAGUCCCAAGCCCGGAUAAAAGUGGAGGGGGCGG [A4C G16A],0.0955
12,AACCCUGCCAAUGCCGGUCCCAAGCCCGGAUAAAGGUGGAGGGGGCGG [A4C A35G],0.451
13,AACCCUGCCAAUGCCGGUCCCAAGCCCGGCUAAAAGUGGAGGGGGCGG [A4C A30C],0.0841
14,AACCCUGCCAAUGCCGGUCCCAAGCACGGAUAAAAGUGGAGGGGGCGG [A4C C26A],0.0425
15,AAUACUGCCAAUGCCGGUCCCAAGCCCGGAUAAAAGUGUAGGGGGCGG [C3U G39U],0.066
16,AACCCUGCCAAUGCCGGUCCCAAGCCCGGAUAAAAGUGGCGGGGGCGG [A4C A40C],0.0698
17,AACCCUGCCAAUGCCGGUCCCAAGCCCGGAUAAAAGUGGGGGGGGCGG [A4C A40G],0.0825
18,AACCCUGCCAAUGCCGGUCCCAAGCCCGGAUAAAAGUGGUGGGGGCGG [A4C A40U],0.0853
19,AAUACUGCCAAUGCCGGUCCCGAGCCCGGAUAAAAGUGGAGGGGGCGG [C3U A22G],0.0518
20,AAUACUGCCAAUGCCGGUCCCUAGCCCGGAUAAAAGUGGAGGGGGCGG [C3U A22U],0.255
21,AAUACUGCCAAUGCCGGUCCCCAGCCCGGAUAAAAGUGGAGGGGGCGG [C3U A22C],0.549
22,AAUACUGCCAAUGCCGGUCCCACGCCCGGAUAAAAGUGGAGGGGGCGG [C3U A23C],0.12
23,AAUACUGCCAAUGCCGGUCCCAAGACCGGAUAAAAGUGGAGGGGGCGG [C3U C25A],0.0634
24,AAUACUGCCAAUGCCGGUCCCAAGGCCGGAUAAAAGUGGAGGGGGCGG [C3U C25G],0.0982
25,AAUACUGCCAAUGCCGGUCCCAAGCCCGGAUAAAAGUUGAGGGGGCGG [C3U G38U],0.409
26,AACCCUGCCAAUGCCGCUCCCAAGCCCGGAUAAAAGUGGAGGGGGCGG [A4C G17C],0.0696
27,AACCCUGCCAAUGCCGGUCCCAAGCCCGGAUAAAAGUGGAGGGGGUGG [A4C C46U],0.163
